Data taken from patent US8273357B2, “Antigen-carbohydrate conjugates” (Massachusetts Institute of Technology, priority 2004, dated 2012).
Entries after “also recorded” stand apart in the source; their conditions may differ.

B1: (OVA)-3-1: ovalbumin modified via SMCC with nonasaccharide 3-1, average of three saccharides per OVA (conjugate)
chain: GSIGAASMEFCFDVFKELKVHHANENIFYCPIAIMSALAMVYLGAKDSTRTQINKVVRFDKLPGFGDSIEAQCGTSVNVHSSLRDILNQITKPNDVYSFSLASRLYAEERYPILPEYLQCVKELYRGGLEPINFQTAADQARELINSWVESQTNGIIRNVLQPSSVDSQTAMVLVNAIVFKGLWEKAFKDEDTQAMPFRVTEQESKPVQMMYQIGLFRVASMASEKMKILELPFASGTMSMLVLLPDEVSGLEQLESIINFEKLTEWTSSNVMEERKIKVYLPRMKMEEKYNLTSVLMAMGITDVFSSSANLSGISSAESLKISQAVHAAHAEINEAGREVVGSAEAGVDAASVSEEFRADHPFLFCIKHIATNAVLFFGRCVSP
B2: ovalbumin (protein, UniProt P01012 2-386, looked up)
Ovalbumin: B1 chain
notes: model antigen, unmodified

Tests used:
B cells and macrophages = test: Antigen presentation with B cells and macrophages (non-dendritic cells) as antigen-presenting cells; assay type: cell-based, mouse; settings: in place of purified dendritic cells
Method: (§1) FIGS. 4A, 4B, 4C and 4D are graphs showing that CD11c^+ dendritic cells are the main antigen presenting cells presenting 3-1-targeted antigen. […] 1.5×10^4 Splenic CD11c^+ dendritic cells purified from C57BL/6 mice and 3.0×10^4 purified OTII T cells were incubated with OVA (starting concentration 300 μg mL^−1) or (OVA)-3-1 (starting concentration 25 μg mL^−1) in graded doses for eight-four hours with [^3H]thymidine (1 μCi) added for the last twelve hours. […] Purified CD11c^+ dendritic cells and OTII T cells were incubated with (OVA)-3-1 (25 μg mL^−1)±each potential inhibitor (100 μg mL^−1). T cell proliferation was determined as for FIG. 4A. […] CD11c^+ dendritic cells and OTII T cells were incubated with OVA or (OVA)-3-1±lipopolysaccharide ([…]). Also included are all ‘non-dendritic cells’ (macrophages and B cells) obtained during the purification of the dendritic cells. T cell proliferation was determined as described in FIG. 4A. […] Supernatants from cells described in FIG. 4C were collected at forty-eight and seventy-two hours and measured for IFN-γ by ELISA; the values presented are from the seventy-two hour time point. All measurements here were performed in triplicate. […]

OTII T cells = test: Adoptive transfer of OTII cells, subcutaneous immunization, FACS count of donor T cells; assay type: in vivo, mouse; settings: 200 ng subcutaneous
Source text: FIGS. 6A, 6B, and 6C are a schematic diagram (FIG. 6A) and a series of flow cytometry dot plots (FIGS. 6B and 6C). FIG. 6A is a schematic diagram that illustrates the adoptive transfer technique: CD4^+CD45.2^+ ovalbumin-specific T cells are adoptively transferred to congenic CD45.1^+ recipients. After immunization the draining lymph nodes and other lymphoid organs (e.g., the spleen) are isolated. Cells from these tissues are stained with an antibody against the CD45.2 isoform and the OTII T cell receptor to identify the original donor cells. […] B6.Ly5.2/Cr mice were injected intravenously with 2×10^7 OTII splenocytes. 24 hours later the mice were injected subcutaneously with PBS, OVA (200 ng), or (OVA)-3-1 (200 ng). […] Each panel represents two or more experiments.
In order to determine the immunological implications of (OVA)-3-1 internalization and presentation by dendritic cells in vivo, the technique of adoptive transfer (FIG. 6A) was employed to track the T cell responses to DC presented antigen^15. […]
CD45.2^+ VA-specific T cells were transferred to B6.Ly5.2/Cr (CD45.1^+) recipients and, after a twenty-four hour rest period, the mice were immunized subcutaneously with PBS, OVA or (OVA)-3-1. After seventy-two hours, cells were isolated from the draining inguinal lymph nodes and counted by FACS to determine the extent of OTII cell division induced by the immunization regimen (FIG. 6B). […]

IFN-γ = IFN-γ ELISA of supernatants from purified dendritic cell/OTII T cell assay; assay type: cell-based, mouse; settings: average; 72 h supernatants
Method: as §1, with “point.” for “point. All measurements here were performed in triplicate.”
75-150 μL aliquots of supernatant were sampled from antigen presentation assays at 24, 48, and 72 hours. […] 25 μL of each supernatant were diluted 1:1 with PBS/1% BSA and analyzed in triplicate for IFN-γ, IL-10, and IL-4 using DuoSet ELISA reagents from R&D Systems. […]

Molecule	T cell responses with B cells and macrophages as antigen-presenting cells (B cells and macrophages)	total OTII cell number in the draining lymph node compared to soluble OVA (OTII T cells; 72 h)	total OTII cell number in the spleen (OTII T cells; 3 days)	less IFN-γ produced by T cells responding to OVA than to (OVA)-3-1 (IFN-γ) [%]
B1	negligible	doubling; also recorded: promotes expansion	appreciable increase	
B2				40
